Columns and labels:
Assay in all cases: MTAP substrate assay, coupled spectrophotometric (adenine, xanthine oxidase)
Assay type in all cases: biochemical, human
Settings in all cases: other: substrate of MTAP, 37° C.
[1] = substrate: CCOC(=O)CCSC[C@H]1O[C@@H](n2cnc3c(N)ncnc32)[C@H](O)[C@@H]1O
Description: (§1) An enzymatic assay to determine the activity of MTAP against a given substrate was performed. Human MTAP containing an N-terminal six-histidine tag was expressed in E. coli BL21 DE3 cells. The protein was purified to homogeneity by Ni2+ affinity chromatography. Enzymatic activity was measured using a coupled spectrophotometric assay designed to monitor the reaction product adenine (Savarese, T. M., Crabtree, G. W., and Parks, R. E. Jr., (1980) Biochem. Pharmacol. 30, 189-199). Various concentrations of the indicated 5′-deoxymethylthio adenosine (MTA) or substrate were incubated in assay buffer (40 mM potassium phosphate buffer, 1 mM, and DTT 0.8 units/ml xanthine oxidase coupling enzyme) for 5 minutes at 37° C. The reaction was initiated by the addition of MTAP. The exact concentration of enzyme used varied for each substrate tested and ranged from 2 nM to 500 nM. Activity as a function of enzyme concentration was determined for each substrate tested to ensure that the appropriate enzyme concentration was used. Activity was detected by continuous monitoring of absorbance at 305 nm for 10 minutes (ΔE=15,500 M^−1).
(§2) Library compounds (10 and 50 uM) were tested using the assay described above with 2 nM MTAP enzyme. The resultant initial velocities are reported as a percentage of the initial velocity observed when MTA is the substrate. MTA controls, 10 and 50 uM concentrations, were run on each plate alongside the library compounds.

[2] = substrate: Nc1ncnc2c1ncn2[C@@H]1O[C@H](CSc2ncccn2)[C@@H](O)[C@H]1O
Description: as §1, §2

[3] = substrate: Nc1ncnc2c1ncn2[C@@H]1O[C@H](C(=O)NCCO)[C@@H](O)[C@H]1O
Description: as §1, §2

[4] = substrate: CCOC(=O)CC[C@H]1O[C@@H](n2cnc3c(N)ncnc32)[C@H](O)[C@@H]1O
Description: as §1, §2

[5] = substrate: CSC[C@H]1O[C@@H](n2cnc3c(N)ncnc32)[C@H](O)[C@@H]1O
Description: as §1, §2

[6] = substrate: Nc1ncnc2c1ncn2[C@@H]1O[C@H](CNC2CCCC2)[C@@H](O)[C@H]1O
Description: as §1, §2

[7] = substrate: Nc1ncnc2c1ncn2[C@@H]1O[C@H](CCc2ccccc2)[C@@H](O)[C@H]1O
Description: as §1, §2

[8] = substrate: COc1cccc(SC[C@H]2O[C@@H](n3cnc4c(N)ncnc43)[C@H](O)[C@@H]2O)c1
Description: as §1, §2

[9] = substrate: NCCSC[C@H]1O[C@@H](n2cnc3c(N)ncnc32)[C@H](O)[C@@H]1O
Description: as §1, §2

[10] = substrate: Cc1ccc(SC[C@H]2O[C@@H](n3cnc4c(N)ncnc43)[C@H](O)[C@@H]2O)cc1
Description: as §1, §2

[11] = substrate: Nc1ncnc2c1ncn2[C@@H]1O[C@H](COc2ccccn2)[C@@H](O)[C@H]1O
Description: as §1, §2

[12] = substrate: CSC[C@H]1O[C@@H](n2cnc3c(N)ncnc32)[C@@H](O)[C@@H]1O
Description: as §1, §2

[13] = substrate: Nc1ncnc2c1ncn2[C@@H]1O[C@H](CSCCc2ccccn2)[C@@H](O)[C@H]1O
Description: as §1, §2

[14] = substrate: Nc1ncnc2c1ncn2[C@@H]1O[C@H](CSc2ncc[nH]2)[C@@H](O)[C@H]1O
Description: as §1, §2

[15] = substrate: CC(C)CSC[C@@H]1O[C@H](n2cnc3c(N)ncnc32)[C@H](O)[C@@H]1O
Description: as §1, §2

[16] = substrate: Nc1ncnc2c1ncn2[C@@H]1O[C@H](COc2cccnc2)[C@@H](O)[C@H]1O
Description: as §1, §2

B1: Human MTAP (Homo sapiens) (protein)
chain: MASGTTTTAVKIGIIGGTGLDDPEILEGRTEKYVDTPFGKPSDALILGKIKNVDCVLLARHGRQHTIMPSKVNYQANIWALKEEGCTHVIVTTACGSLREEIQPGDIVIIDQFIDRTTMRPQSFYDGSHSCARGVCHIPMAEPFCPKTREVLIETAKKLGLRCHSKGTMVTIEGPRFSSRAESFMFRTWGADVINMTTVPEVVLAKEAGICYASIAMATDYDCWKEHEEAVSVDRVLKTLKENANKAKSLLLTTIPQIGSTEWSETLHNLKNMAQFSVLLPRH
notes: six-histidine tag (His6) (N); made in house; host or cells: E. coli BL21 DE3
- Km [1]: 4.3 µM
- kcat [1]: 1.54 s⁻¹
- Km [2]: 7 µM
- kcat [2]: 4.1 s⁻¹
- Km [3]: 1000 µM
- kcat [3]: 3 s⁻¹
- Km [4]: 5.95 µM
- kcat [4]: 4.12 s⁻¹
- Km [5]: 2.233 µM
- kcat [5]: 3.97 s⁻¹
- Km [6]: 600 µM
- kcat [6]: 0.3 s⁻¹
- Km [7]: 1.3 µM
- kcat [7]: 4.6 s⁻¹
- Km [8]: 2.2 µM
- kcat [8]: 1.4 s⁻¹
- Km [9]: 390 µM
- kcat [9]: 0.141 s⁻¹
- Km [10]: 1.5 µM
- kcat [10]: 1.44 s⁻¹
- Km [11]: 29 µM
- kcat [11]: 3.82 s⁻¹
- Km [12]: 106 µM
- kcat [12]: 0.006 s⁻¹
- Km [13]: 10.2 µM
- kcat [13]: 1.01 s⁻¹
- Km [14]: 9 µM
- kcat [14]: 3.8 s⁻¹
- Km [15]: 3.1 µM
- kcat [15]: 2.3 s⁻¹
- Km [16]: 33 µM
- kcat [16]: 0.126 s⁻¹

Reference: patent US20040043959A1, “Combination therapies for treating methylthioadenosine phosphorylase deficient cells” (priority 2002, published 2004)
